Measurements from article PMC3909184.

Target: CXCR4 (human) (UniProt P61073)
Chain of UniProt P61073 (P61073 whole entry): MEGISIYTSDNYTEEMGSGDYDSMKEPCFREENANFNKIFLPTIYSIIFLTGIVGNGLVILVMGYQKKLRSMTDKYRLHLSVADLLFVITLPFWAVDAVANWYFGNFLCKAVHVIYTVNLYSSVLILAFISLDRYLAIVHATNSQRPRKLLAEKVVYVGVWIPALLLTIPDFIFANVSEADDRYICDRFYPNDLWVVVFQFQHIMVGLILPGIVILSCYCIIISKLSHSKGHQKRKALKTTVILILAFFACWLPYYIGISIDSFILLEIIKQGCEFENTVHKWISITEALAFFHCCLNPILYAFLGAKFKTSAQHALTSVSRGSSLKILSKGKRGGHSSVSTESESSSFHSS

## WT CXCL12 (from UniProt P48061 22-93) (ligand)
  EC50 of Kir3* K+ current activation (TEVC, -50 mV) in Xenopus oocytes co-expressing CXCR4 and Kir3.1* or Kir3.4*; dose-response: 23 nM
